Experiment: soluble on expression in E. coli; label from the status in PepcDB or PDB records

Sequence	soluble on expression in E. coli
MKYQLTALEARVIGCLLEKQVTTPEQYPLSVNGVVTACNQKTNREPVMNLSESEVQEQLDNLVKRHYLRTVSGFGNRVTKYEQRFCNSEFGDLKLSAAEVALITTLLLRGAQTPGELRSRAARMYEFSDMAEVESTLEQLANREDGPFVVRLAREPGKRENRYMHLFSGEVEDQPAVTDMSNAVDGDLQARVEALEIEVAELKQRLDSLLAHLGD	soluble
MLAVSSAIVSSAMYILSFPGQASGITKEQVTKHMKKESFKQADIYYTSKEKSLLPLTKETLEYAVSINQIMIGYSNQKPIDIIFFLMKNRWRLTPVYWMLEHHHHHH	not soluble
MGSDKIHHHHHHMESTRRIYASPSYEVYGLSRNPFIELASEGIEDIESIHVYQEVDMRISSLISDVIGNRSSITLSIVGPLGMGKTQRLKSIARVIEDRGGKVIYIKVDTTDVLKITRDIFASLRPPKNRTNVFLENLSRKLGFITRLEKMLSSTDEYKSRDIAEMLTRELSKYQYSALLLDELENMRGATEKEKILFFEMLRHFISNMPPGCVFAFASIPEAYEEYSSQFPAFFMRLHYEFKLRPMSYQEIIELVKKRLAKVRIRDTADPLYPFTEDAIKLIHELGKGNPRQILRLLNYVLSEAVKHKFDPINEYVVTTILEEPKSLEEYIARIPSDFKDLVKVIVEKFEGGPVSYIQIAKELKIPGMEAYEKLEHLVSLGFLVGDPRGNYKVPDYVRKFLEEKGE	not soluble
MSLKHLIKNYVQKLIKTELDAIQSKSVHDNRNFIYNGEFLILESEFGLHCFPRVQLNHALSYKNPNFDLGMRHWIVNHCKHDTTYIDIGANVGTFCGIAARHITQGKIIAIEPLTEMENSIRMNVQLNNPLVEFHHFGCAIGENEGENIFEVYEFDNRVSSLYFQKNTDIADKVKNSQVLVRKLSSLDISPTNSVVIKIDAEGAEIEILNQIYEFTEKHNGIEYYICFEFAMGHIQRSNRTFDEIFNIINSKFGSKAYFIHPLSSAEHPEFNKATQDINGNICFKYVSEGHHHHHH	soluble
MSLEQNFIRLYQDSFREHWALPALTNYDTKESYTYGEMAADIARRHLLFERIGLKPGDKVALLGKDSAEWCMAFMSVITYGAIIVPVLPDFNAADAASIVTHSDAKYLFVSDKIWETMDPSQLLLLCGAVSIRDYTVFLDRTEGGLLSQEVEGLSRSFSEHYPSGFTAEDIRYAEVSNDDLILLNYTSGTTGFSKGVMLRANNLAGNVTYVKDRDIMFRGETILCFLPLAHTYSCAFNFLTPLTIGVHVYILGKIPSPLTLIKAFADVRPSFVIMVPLIIEKLYHKAIAPKIKTPLIKFLLRLPVLKKVIHKSIRSKLIESFGGNFRQIIIGGAALNDEVAHFLYRIGFPLTVGYGMTECGPLISYEDHSLWLPGSCGKSLSIMEVRIDHSGQERHSDSGDVGEIQVRGENVCLGYYKNAELTAELFTPDGWMRTGDLGTIDSLGNIFIKGRSKTMLLGSNGQNIYPEEIESKINNLSYVLESIVTERDGRLIALIVPDRQAIEHKGISPDQAWAYIERSRAELNGQVGAYEKITAFVRHDEEFEKTPKHSIKRFLYTEGHHHHHH	soluble
MGSDKIHHHHHHMSDVNASLVDGKKILVTGGAGFIGCAISERLAARASRYVVMDNLHPQIHASAVRPGALHEKAELVVADVTDAGAWDALLSDFQPEIIIHLAAETGTGQSLTEASRHALVNVVGTTRLTDALVKHGIVVEHILLTSSRAVYGEGAWQKDDGTIVYPGQRGRAQLEAAQWDFPGMTMLPSRADRTEPRPTSVYGATKLAQEHVLRAWSLATKTPLSILRLQNVYGPGQSLTNSYTGIVALFSRLAREKKVIPLYEDGNVTRDFVSIDDVADAIVATLVRTPEALSLFDIGSGQATSILDMARIIAAHYGAPEPQINGAFRDGDVRHAACDLSESLANLGWKPQWSLKRGIGELQTWIAQELDRKN	not soluble
MAHHHHHHMVVSLIGPLDSPYVQRTLLVAAYAGIQLKLVPIQIGRENETEEYRLNCHPMQRVPVMKTDEGYLFESNAMIRYLARTEVMLVSVSAGIDSAGANNEKIPHPQYPIPYAMYGHSLLESTQVDSWLDFAITRIDFYTRQFFAYEHKTGPKPAADMKTLLCKSLDGLERRVAYLKEACRALVQQSGSLTSRSVMTDEELVWNEEDYMASRATRDSRLSSVYNVAGSIRQRHMEKERQEREKQLMLIKKTTDDALGKEEGADDPHHPSRRPSVSRDSMAISATPRASVLMSARSTMGSAAPGVQRHDLLFLVGGSLTAADLVMAMSLHGVLCCQELKPVLTSKYPNLFKYYKSVLMLPVAAEVRKAIRLSIIKE	soluble
MGSDKIHHHHHHVHKSLSNAFEGFSFSGDITTDVLGLLHHHGRQDVAKHVLAVAKTAQRLAPIYDVDSEAAYSAGLLHDISLIFSTSQMLQTALDLGLEPVTAEKRVPYLLHGKLSAAMAEIVFGVKNDSLVHAVSCHTTLCARATTLDKVVFLADKMSWDQEYSPFKPELETALEKSLDEAVGVFLTWTWKQKEKLNSIHPWLIDAWKDYKVGDYA	not soluble
MWRSCLRLRDGGRRLLNRPAGGPSASMSPGPTIPSPARAYAPPTERKRFYQNVSITQGEGGFEINLDHRKLKTPQAKLFTVPSEALAIAVATEWDSQQDTIKYYTMHLTTLCNTSLDNPTQRNKDQLIRAAVKFLDTDTICYRVEEPETLVELQRNEWDPIIEWAEKRYGVEISSSTSIMGPSIPAKTREVLVSHLASYNTWALQGIEFVAAQLKSMVLTLGLIDLRLTVEQAVLLSRLEEEYQIQKWGNIEWAHDYELQELRARTAAGTLFIHLCSESTTVKHKLLKE	not soluble
MNIRDLEYLVALAEHRHFRRAADSCHVSQPTLSGQIRKLEDELGVMLLERTSRKVLFTQAGMLLVDQARTVLREVKVLKEMASQQGETMSGPLHIGLIPTVGPYLLPHIIPMLHQTFPKLEMYLHEAQTHQLLAQLDSGKLDCVILALVKESEAFIEVPLFDEPMLLAIYEDHPWANRECVPMADLAGEKLLMLEDGHCLRDQAMGFCFEAGADEDTHFRATSLETLRNMVAAGSGITLLPALAVPPERKRDGVVYLPCIKPEPRRTIGLVYRPGSPLRSRYEQLAEAIRARMDGHFDKVLKQAV	soluble
FCKELPRPELPYSEMSAIGSLIQALPASCALHLANSSAVRYAQLYSLPDTVEVCCNRGTSGIEGSLSTAIGYAAASKKLNFVVIGDLSFFYDMNALWNNHFGSNLRILLLNNGGGEIFHTLPGLEMSGTSHRFVTAVHKTSAKGWAEERGFLYQEVQDEKQLDEAMKTFTQPELLTQPVIMEVFTNKNKDARILKDYYHQLKN	not soluble
MGSDKIHHHHHHMRLRHIEIFHAIYTTGSITNAAKILHVSQPSVSKVLSHAEMQLGFDLFERVKGRLTPTDEAEMLFDEVDKIYQQMRSIKNTAENIKKSEYGQINIAGSPALGFDVIPSAIAKYHHKHHQVNFNVQTVHNDAVMQTLLEHKCDLAILFAPNVMPGVTSIELAQSELVIVYPKVSFPDCPKELTLNQLKEFEYIDIGDSGPLADLLWTRMMKDNISLEALIKVQTYFIAARLVAQGVGICVVDRFTAEGNLSDNTAIASFNPPLTFPVKALYLENKSLSKVSQEFLSYLTTEFSDDSK	not soluble
MIRFCLQCLKTKKACICEWITPITTDIELIILQHPTEAKRPLGTAKILSLSLVNCRTFIGENFSEHSELNQLLADDSYHHQVLFLDNESKAIGTDKALLQKKQRVILLDGTWKKAYKMWQLSTNLHSLPKVHLNTDLSGNYRVRKAPKDNALSTAEAGYHILTQLDNDCVASNNVEKFDSILTAFDNMIEFHISQMPEGVFEKNYRSLEHHHHHH	soluble
AHHHHHHGSVRDMEFGNLKPGVENSVCLSAEDLLNTVLSVINSTKARGAYVKIFGKDMEDNYLLEMLVDGSRILAIECSYVQAKKKVVGEEAIKKLAELVELPLIVSVYPLDDNQFRLILANNLEVYSQTPAVPLSSVFKKGATRTIESAIEEAKEEKEEEIQKIMKKTEEIVTEEKKKKEEKKRSSNRNTKRKQN	soluble
MSYYHHHHHHDYDIPTENLYFQGAMGRADPRNQRVLLDEYSRQRGQITAGGQLLAYSVATDGRFRFLRVYPNPEVYAPVTGFYSLRYSSTALERAEDPILNGSDRRLFGRRLADFFTGRDPRGGNVDTTINPRIQQAGWDAMQQGCYGPCKGAVVALEPSTGKILALVSSPSYDPNLLASHNPEVQAQAWQRLGDNPASPLTNRAISETYPPGSTFKVITTAAALAAGATETEQLTAAPTIPLPGSTAQLENYGGAPCGDEPTVSLREAFVKSCNTAFVQLGIRTGADALRSMARAFGLDSPPRPTPLQVAESTVGPIPDSAALGMTSIGQKDVALTPLANAEIAATIANGGITMRPYLVGSLKGPDLANISTTVGYQQRRAVSPQVAAKLTELMVGAEKVAQQKGAIPGVQIASKTGTAEHGTDPRHTPPHAWYIAFAPAQAPKVAVAVLVENGADRLSATGGALAAPIGRAVIEAALQGEP	soluble
MSLKLIATDMDGTLLRSNGEFPNEFPLILDSLLNKNIMFSVASGRQYFTLKDNMAGFEDKITFIAENGAFIVKDGKELFAKTLDRDMLSKVVDDAKKVPDCKLVLCGKKSAYVLDKSSAFIEEVEKYYHKSAVVNSLDEIDDEFFKIAICDYKGSANNSNVLLSPKWGKLFQLTVSGDIWLDIGRNDVNKGTAIKFLQDKFNINENETMAFGDYYNDVSMLQSVYHSYVMENAPDGVKKHGRFIAKSNDESGVIQVIKNKVLELGAEGHHHHHH	soluble
MTSSNKLHEVDKDQQSAFDITGRYQTISAHPTKEFSKPTLAAGAVLWRHSSTITENPAVEFAVIHRPHYDDWSLAKGKVDPGESLPVTAEREIREETGHHVHLGKLLGKVSYPVGERTKVVYYWIAQVHDEAFEENNEVDELRWLPYTEARELLSYDVDRLVLDKAYKRLALPTTTRVILVRHAKAHQRHNWAGNDSIRPLEKKGQRQADLLGPMLAAYGPTSIHSATPARCQQTAAPLSELTGLEVVVDDRFDDEAWLSRMTVAQKACEELIATPGTHVVVSQGLFIPDAIAWLSAQGRLPLETIEAKKASAWVLSFHEGELTGADYLVSPLGVK	not soluble
MGSDKIHHHHHHMSRSDARICAIHQPNFFPWLGYFDKIVRADIFVLLDDVQYQKTGGNWTNRVQMMIGQGPKWVTAPVDRSYSGVRQIREIRFSPVEREWREKLCSTITASYGRAAYFREVYPFIEPIIMNDSDFLSDYNSHAIAALCDYLEIESSKLVRSSQFNLQNNATDLLIDITKAVGAVRYLCGGGAQGYQEDEKFPRHGIQLIYQNFCHPIYTQANDAPFQPGLSIVDALMHCGRRGVIELLNRK	not soluble
MARPKSEDKKQALLEAATQAIAQSGIAASTAVIARNAGVAEGTLFRYFATKDELINTLYLHLKQDLCQSMIMELDRSITDAKMMTRFIWNSYISWGLNHPARHRAIRQLAVSEKLTKETEQRADDMFPELRDLCHRSVLMVFMSDEYRAFGDGLFLALAETTMDFAARDPARAGEYIALGFEAMWRALTREEQ	not soluble
MNKDIETQRFKQQKKWQKYYKFRGQFFLMKKYSKRMIFDRRIKMTTKEKIEFIKQVTPHSDSEVEKIIKGMSDTSINRWYEIEKYRIDQELEEAVLTIYC	not soluble
MSLTNFVCHTLYHLLITIIKLKDKENTRIFICDTITDYETWVKILNDQGIRTESFKEFAYREQLQNKNIEEVMELVDSDLNHYFERVDTQVYLFNDDTLIGRYMVYLGKNYHLIEDGYNCFQAKLFLGGSVVKRVIKTYLFKKYVPYGFSKYCLSIEVNSLVGLPHDIRSKKYKELPRKKLFDSLNKEQKSLIFKIFKTKPLTITPKSVLLLTQPLAQDKWYKTPTERFQSIQEQYDYFDDIVQEYRTLGYNVYLKVHPRDVVDYSKLPVELLPSNVPMEIIELMSTGRFECGITHSSTALDSLTCVDKKITLVDLKDIKEGHHHHHH	not soluble

Source: the DeepSol protein solubility set
